Measured values taken from article PMC6755812.

What was measured:
[1] = target: bovine pancreas insulin (bovine)
[2] = target: Escherichia coli peptide methionine sulfoxide reductase A (E. coli) (UniProt P0A744)
[3] = target: Escherichia coli thioredoxin reductase (E. coli) (UniProt P0A9P4)
Cys32 = Cys32 (UniProt position 33, FWAEWCGPCKM); conditions: reduced (dithiol) form implied; not stated explicitly; cited from earlier work

Sequence of Escherichia coli peptide methionine sulfoxide reductase A (E. coli) (P0A744 2-212): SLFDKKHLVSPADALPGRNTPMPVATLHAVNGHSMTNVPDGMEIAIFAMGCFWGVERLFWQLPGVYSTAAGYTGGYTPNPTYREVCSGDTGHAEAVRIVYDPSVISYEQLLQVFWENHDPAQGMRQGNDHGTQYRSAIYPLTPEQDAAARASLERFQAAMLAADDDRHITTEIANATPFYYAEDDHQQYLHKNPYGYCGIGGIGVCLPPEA
Sequence of Escherichia coli thioredoxin (P0AA25 2-109): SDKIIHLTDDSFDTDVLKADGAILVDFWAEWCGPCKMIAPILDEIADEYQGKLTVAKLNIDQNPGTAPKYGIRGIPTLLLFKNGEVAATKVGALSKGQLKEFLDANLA
Sequence of Escherichia coli thioredoxin reductase (E. coli) (P0A9P4 2-321): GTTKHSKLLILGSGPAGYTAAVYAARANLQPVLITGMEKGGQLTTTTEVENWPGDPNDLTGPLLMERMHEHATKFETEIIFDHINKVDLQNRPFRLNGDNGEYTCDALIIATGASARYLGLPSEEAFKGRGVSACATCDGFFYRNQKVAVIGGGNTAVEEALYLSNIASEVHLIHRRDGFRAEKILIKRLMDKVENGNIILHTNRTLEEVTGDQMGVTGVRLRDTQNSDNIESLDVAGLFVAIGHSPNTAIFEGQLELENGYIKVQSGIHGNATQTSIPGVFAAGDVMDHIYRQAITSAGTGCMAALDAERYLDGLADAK

Row | Substance | Specific insulin reductase activity (0.13 mM insulin, 1 mM DTT, 0.5-2.0 μM Trx, onset of aggregation at OD650, pH 7.0, 25 °C) [1] [min^−1 μM^−1] | k1: rate constant of Trx–MsrA mixed disulfide formation (stopped-flow fluorescence, 1 μM oxidized MsrA, 5-100 μM reduced Trx, pH 7.0, 25 °C) [2] [M^−1 s^−1] | k2: rate constant of mixed disulfide dissociation to reduced MsrA and oxidized Trx (stopped-flow fluorescence, pH 7.0, 25 °C) [2] [s^−1] | Catalytic activity of S-MetO reduction by NADPH (Vi/[Trx]) in the reconstituted NADPH/TrxR/Trx/MsrA chain (4.5 μM TrxR, 4.5 μM MsrA, 0.1-1.0 μM Trx, pH 7.0, 25 °C) [3] [min^−1] | kcat/Km: activity as substrate of TrxR (ecTrxR-catalysed reduction of Trx by NADPH, DTNB-coupled, 0.04 μM TrxR, 0.1-300 μM Trx, pH 7.0, 25 °C) [3] [M^−1 s^−1] | pKa (Cys32)
1 | Last Archaeal Common Ancestor thioredoxin (enzyme) | 0.0532 | 518000 | 1.54 | 9.13 | 118000 | 
2 | Thioredoxin 1 (ecTrx) (Escherichia coli) |  |  |  |  |  | 7.1
3 | Archaeal–Eukaryotic Common Ancestor thioredoxin (enzyme) | 0.0452 | 716000 | 1.75 | 14.6 | 130000 | 
4 | Escherichia coli thioredoxin (from UniProt P0AA25 2-109) (enzyme) | 0.0512 | 1.01e+06 | 2.89 | 66.9 | 8.81e+06 | 

More lines, main results first:

Row | Specific insulin reductase activity (0.13 mM insulin, 1 mM DTT, 0.5-2.0 μM Trx, onset of aggregation at OD650, pH 7.0, 25 °C) [1] [min^−1 μM^−1] | k1: rate constant of Trx–MsrA mixed disulfide formation (stopped-flow fluorescence, 1 μM oxidized MsrA, 5-100 μM reduced Trx, pH 7.0, 25 °C) [2] [M^−1 s^−1] | k2: rate constant of mixed disulfide dissociation to reduced MsrA and oxidized Trx (stopped-flow fluorescence, pH 7.0, 25 °C) [2] [s^−1] | Catalytic activity of S-MetO reduction by NADPH (Vi/[Trx]) in the reconstituted NADPH/TrxR/Trx/MsrA chain (4.5 μM TrxR, 4.5 μM MsrA, 0.1-1.0 μM Trx, pH 7.0, 25 °C) [3] [min^−1] | kcat/Km: activity as substrate of TrxR (ecTrxR-catalysed reduction of Trx by NADPH, DTNB-coupled, 0.04 μM TrxR, 0.1-300 μM Trx, pH 7.0, 25 °C) [3] [M^−1 s^−1] | Substance | pKa (Cys32)
5 | 0.0645 | 369000 | 1.65 | 25.8 | 718000 | Last γ-Proteobacteria Common Ancestor thioredoxin (enzyme) | 
6 | 0.0781 | 498000 | 2.69 | 11.7 | 117000 | Last Bacterial Common Ancestor thioredoxin (enzyme) | 
7 | 0.0224 | 45000 | 3.47 |  |  | Last Animalia and Fungi Common Ancestor thioredoxin (enzyme) | 
8 | 0.0738 | 40700 | 3.51 | 0.29 |  | Last Eukaryotic Common Ancestor thioredoxin (enzyme) | 
9 | 0.104 | 436000 | 2.93 | 36.9 | 7.6e+06 | Last Common Ancestor of the Cyanobacterial, Deinococcus, and Thermus group thioredoxin (enzyme) | 
